The numbers were not newly measured in patent US11707610B2, “Ingestible device for delivery of therapeutic agent to the gastrointestinal tract” (BIORA THERAPEUTICS, INC., priority 2019, dated 2023), which cites them from elsewhere.

Where two headings read alike, the source gives them in different places.

Usually bioavailability stands for the share of a dose that reaches the circulation, judged against a reference dose that is usually intravenous.

For series [1] the following is noted: self-administration of 360,000 units, medical observation.
The conditions of series [2]: for bioavailability: by SC injection; for Approved Dosing Info: Bio Avail: Table 16, approved injection, Admin SC.

For Dalteparin, the “stability at room temperature” value (room temperature) is listed as “stable”. For the same substance, in series [1], the outcome of overdose is reported as “no notable sequelae”. Besides, in series [2], the bioavailability entry is “approximately 87%”. For the same substance, in series [2] (in vivo), the “primary mode of elimination” value is given as “kidneys”.
Consider Human Growth Hormone [Genotropin ®], for which the “Storage temperature: time after reconstitution” value (2-8° C., after reconstitution) was 2-8 °C 4 weeks.
On to adalimumab, for which, in series [2], the “Approved Dosing Info: Bio Avail” value is reported as 64% and the bioavailability is given as 64%. Also, in series [2] (listed as Adalimumab), the bioavailability result is on record as “approximately 64%”. Besides, in series [2] (in vivo), the half-life result is “approximately 2 weeks” and the “primary mode of elimination” value was “intracellular catabolism”.
As for certolizumab-pegol [Cimzia ®], the “Storage temperature: time at room temp” value (room temp) is given as 2 hrs at.
etanerecpt [Embrel ®]: the “Storage temperature: time at 25° C.” value (25° C.) was 14 days.
Consider infliximab [Remicade ®], for which, where the note is “30° C.”, the “Storage temperature: time at 30° C.” value was “to 12 months”.
For the substance semaglutide [compound 4], in series [2], the “Approved Dosing Info: Bio Avail” value was 89%.
